B1: 9.5.2 IgG2 (antibody, V domains shown)
VH: EVQLVESGGGLVKPGRSLRLSCTGSGFTFGDYALNWFRQAPGMGLEWVGFIRGKAYGGTTEYAASVKGRFTISRDDSKSIAYLQMNSLKTEDTAVYYCNREVEYCRSSENYCYGMDVWGQGTTVTVS
VL: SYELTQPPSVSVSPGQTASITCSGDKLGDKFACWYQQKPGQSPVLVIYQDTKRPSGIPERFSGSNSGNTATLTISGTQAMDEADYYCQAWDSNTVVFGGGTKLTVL
notes: also called mAb 9.5.2 (IgG2 isotype); 9.5.2 IgG2λ
B2: 9.5.2 IgG4 (antibody, V domains shown)
VH: B1 VH
VL: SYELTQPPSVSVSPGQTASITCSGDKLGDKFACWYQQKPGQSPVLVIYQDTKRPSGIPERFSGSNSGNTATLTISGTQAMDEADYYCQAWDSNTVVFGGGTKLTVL
notes: also called mAb 9.5.2; mAb 9.5.2 (IgG4 isotype)
B3: 9.5.2 IgG1 (antibody, V domains shown)
VH: B1 VH
VL: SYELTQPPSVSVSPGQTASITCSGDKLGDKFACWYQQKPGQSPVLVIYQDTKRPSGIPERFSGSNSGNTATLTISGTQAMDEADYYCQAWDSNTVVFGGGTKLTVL
B4: 5.5.1 (antibody, IgG4, V domains shown)
VH: QVQLVESGGGVVQPGRSLRLSCAASGFTFSSYGMHWVRQAPGKGLEWVAVIWYDGDNKYYADSVQGRFTISRDNSKNTLYLQMNSLRPEDTAVYYCARERSSSWYFDYWGQGTLVTVSS
VL: QSALTQPASVSGSPGQSITISCTGTSSDVGSYNLVSWYQQHPGKAPKLMIYEVSKRPSGISNRFSGSKSGNTASLTISGLQAEDEADYYCCSYAGSSTWVFGGGTKLTVL
notes: lambda; also called mAb 5.5.1; Ab 5.5.1
B5: 9.54.1 (antibody, human IgG4, V domains shown)
VH: QVQLVESGGGVVQPGRSLRLSCAASGFTFSSFGMHWVRQAPGKGLEWVAVIWYDGSNKYYADSVKGRFTISRDNSKNTLYLQMNSLRAEDTAVYYCARDPNYDILTGYYYYGMDVWGQGTTVTVS
VL: SSELTQDPAVSVALGQTVRITCQGDILRTYYASWYQQKPGQAPVLVIYGKNDRPSGIPDRFSGSSSGNTASLTITGAQAEDEADYYCDSRDNTVTHLVFGGGTKLTVL
notes: lambda; also called 9.54.2

Columns and labels:
[1] = molecular target: T1, Recombinant human IL-1beta (rhIL-1b) (human, UniProt P01584 117-269); assay: cell-based or functional assay
[2] = molecular target: T1, Recombinant human IL-1beta (rhIL-1b); assay: cell-based or functional assay; remark: listed apart in the source
[3] = molecular target: T1, Recombinant human IL-1beta (rhIL-1b); assay: KinExA, single KD-controlled titration
[4] = molecular target: T1, Recombinant human IL-1beta (rhIL-1b); assay: cell-based or functional assay; remark: listed apart in the source
[5] = molecular target: T1, Recombinant human IL-1beta (rhIL-1b); assay: KinExA, triple curve analysis
[6] = molecular target: T1, Recombinant human IL-1beta (rhIL-1b); assay: Biacore, Medium Resolution; complex kinetics; IL-1β in solution; medium-resolution Biacore; complex kinetics
[7] = molecular target: T1, Recombinant human IL-1beta (rhIL-1b); assay: cell-based or functional assay; remark: listed apart in the source
[8] = molecular target: T2, IL-1β R4A mutant (human, UniProt P01584 117-269); assay: binding to site-directed IL-1β mutant; X = abrogation of binding
T2 construct: site-directed mutant

[9] = molecular target: T1, Recombinant human IL-1beta (rhIL-1b); assay: Biacore, Medium Resolution; IL-1β in solution; medium-resolution Biacore; complex kinetics
[10] = molecular target: T1, Recombinant human IL-1beta (rhIL-1b); assay: calculated as kon x KD from KinExA
[11] = molecular target: T1, Recombinant human IL-1beta (rhIL-1b); assay: Biacore, Low Resolution screen; complex kinetics
[12] = molecular target: T1, Recombinant human IL-1beta (rhIL-1b); assay: Biacore high-res, mAb amine-coupled, 23C, long association and dissociation, IL-1β 55 pM
[13] = molecular target: T1, Recombinant human IL-1beta (rhIL-1b); assay: Biacore low-res, mAb captured, 25C; poor fit to 1:1 model; IL-1β in solution (118 nM) over captured mAb; low-resolution Biacore, 25 C; poor fit to 1:1 model
[14] = molecular target: T1, Recombinant human IL-1beta (rhIL-1b); assay: Biacore low-res, mAb captured, 25C; IL-1β in solution (118 nM) over captured mAb; low-resolution Biacore, 25 C; poor fit to 1:1 model
[15] = molecular target: T1, Recombinant human IL-1beta (rhIL-1b); assay: KinExA direct kinetic method
[16] = molecular target: T3, IL-1β R11A mutant (human, UniProt P01584 117-269); assay: binding to site-directed IL-1β mutants
T3 construct: site-directed mutant

[17] = molecular target: T4, IL-1β H30A mutant (human, UniProt P01584 117-269); assay: binding to site-directed IL-1β mutants
T4 construct: site-directed mutant

[18] = molecular target: T3, IL-1β R11A mutant; assay: binding to site-directed IL-1β mutant; X = abrogation of binding
[19] = molecular target: T1, Recombinant human IL-1beta (rhIL-1b); assay: Biacore low-res, mAb captured, 25C; IL-1β in solution (118 nM) over captured mAb; low-resolution Biacore, 25 C
[20] = molecular target: T1, Recombinant human IL-1beta (rhIL-1b); assay: Biacore high-res, mAb amine-coupled, 23C
[21] = molecular target: T1, Recombinant human IL-1beta (rhIL-1b); assay: Biacore, Medium Resolution; IL-1β in solution; medium-resolution Biacore
[22] = molecular target: T1, Recombinant human IL-1beta (rhIL-1b); assay: KinExA, dual curve analysis
[23] = molecular target: T1, Recombinant human IL-1beta (rhIL-1b); assay: Biacore, Low Resolution screen
[24] = molecular target: T4, IL-1β H30A mutant; assay: binding to site-directed IL-1β mutant; X = abrogation of binding

EC50, inhibition of IL-1β-induced IL-6 production in MRC-5 cells [1] | EC50, inhibition of IL-1β-induced IL-8 production in human whole blood [2] | Kd [3] | In Vivo Potency EC50, inhibition of IL-6 induced in mice by human IL-1β [4] | Kd [5] | % IL-6 production, supernatant 1:5 dilut. [7] | % IL-6 production, supernatant 1:10 dilut. [7] | % IL-6 production, supernatant 1:20 dilut. [7] | binding result [8] | binding result [17] | binding result [18] | Kd [19] | koff [19] | kon [19] | Kd [21] | koff [21] | kon [21] | Kd [23] | other results | Binder
4 pM | 69 pM | 0.041 pM | 8 pmoles/mouse | 0.204 pM | – | – | – | – | – | – | – | – | – | – | – | – | – | – | B1
4 pM | 135 pM | 0.04 pM | 5 pmoles/mouse | 0.181 pM | 0% | 0% | 0% | no binding | binds | – | – | – | – | – | – | – | – | Kd [6]: 130 pM; koff [9]: 0.00035 s⁻¹; kon [9]: 2.6e+06 M⁻¹ s⁻¹; koff [10]: 6.1e-07 s⁻¹; Kd [11]: 1640 pM; Kd [12]: 1.5 pM; koff [12]: 1.1e-06 s⁻¹; kon [12]: 710000 M⁻¹ s⁻¹; Kd [13]: 1640 pM; koff [14]: 0.0018 s⁻¹; kon [14]: 1.1e+06 M⁻¹ s⁻¹; kon [15]: 3.4e+06 M⁻¹ s⁻¹; binding result [16]: binds | B2
1 pM | 106 pM | – | 5 pmoles/mouse | – | – | – | – | – | – | – | – | – | – | – | – | – | – | – | B3
216 pM | 1670 pM | 19 pM | 51 pmoles/mouse | – | 1% | 3% | 6% | no binding | binds | no binding | 278 pM | 0.0005 s⁻¹ | 1.8e+06 M⁻¹ s⁻¹ | 180 pM | 0.00057 s⁻¹ | 3.1e+06 M⁻¹ s⁻¹ | 278 pM | Kd [20]: 44.7 pM; koff [20]: 0.000704 s⁻¹; kon [20]: 1.57e+07 M⁻¹ s⁻¹; Kd [22]: 20 pM | B4
11600 pM | – | – | – | – | 5% | 21% | 36% | – | – | no binding | 370 pM | 0.00085 s⁻¹ | 2.3e+06 M⁻¹ s⁻¹ | 140 pM | 0.00035 s⁻¹ | 2.5e+06 M⁻¹ s⁻¹ | 370 pM | binding result [24]: no binding | B5

Reference: patent US20070065439A1 (Amgen, published 2007)
